# From the DeepSol protein solubility set
# Experiment: soluble on expression in E. coli; label from the status in PepcDB or PDB records
row,Sequence,soluble on expression in E. coli
1,MGSDKIHHHHHHMSSEKLRVAAIDLGTNSFHMVIVEESEEKGIVEIDRVKDMICIGRGSISTKRLDDGAMEAGVATLRNFIVLATQRGVALHNILAFATSAIREADNRDEFIDMVRRETGLKIRVITGKEEAQFIYYGVRNAVTLRDKPDLLFDIGGGSVEFIIADKSKVHLLESRKIGVARMLERFVTTDPVSAHELHLLQQFFAAEMYGGAAEMAHELGVSRAIASSGTAQNIARMIRLGKHADGADVLNQSSFTRQEFESFYRQVIAMDASARRKLTGLDEKRVDLIVPGLILFDTIFRVFGIKDVVISDSALREGMVLHQIALIRGRDGSSQLDIRRQSVMELGYRCNWHKPHSEQVARLALMLFDELHPLHGLKERYRELLEYAAMLHNIGEFISISAHHKHSQYIIMNADLRGFSPTEIDIIGNVARYHRKQPPTERHPLYSQLKPSHRRVVDVLSGILRIANGLERGHRQNVQSITARIDQERIVLEALTQFEPDIELWAACGLKEWLEEVLGKPILIEARVR,not soluble
2,MGSDKIHHHHHHMSSEMNGTAPFQDQGATDVSLLEDIVRVTKLQPADEAYSITRRGVAALMAQLLEPGAEARKVSKAVLDDMIAEIDRKLSLQMDEILHHPQFQALESSWRSLHFLVDRTDFRENNRIEFLNATKEELLDDFEDAPEVAKSGLYKTVYSAEYGQFGGKPFGAIIGNYDFGPGAQDIKLLQSLAAVAGMAHAPFMAAASPQFFGCDDFTALPNLKDISSILEGPQYAKWQAFRESEDARYVGLALPRFLLRLPYGEATRPAKCFNYEEQVSDSHDRYCWGNAAFAFATRLTESFANFRWCANIIGPQGGGTVHDLPLHQYQAMGAIQTKIPTEVLISERREFELAEGGFIALTMRKGSDNAAFFSANSVQKPKFFGSSKEGKEAELNYKLGLQLPYMFIVSRLAHYLKVIQREHIGTWKERGDLENELNLWIRQYVSEMDNPMPGVRSRRPLRQAEVTVEEVPGEPGWYRVGLKVTPHFKYMGAYFTLSLVGKLDKE,not soluble
3,MGSDKIHHHHHHMSSFSLDFSLGTFQPLAAKMRPQTLKQYCGQEHLIGAGKPLYKAIENGHIHSMIFWGPPGTGKTTLAEIIAQQIHAQVERISAVTAGVKEIRESIERAKQNRLMGQQTILFVDEVHRFNKTQQDAFLPHIENGTIIFIGATTENPSFELNNALLSRVKVYILKPLTTSNIVTVLQNAIQDAEQGLGKERLIFAENVLETLAEYVNGDARLALNCLELMVDMADETEKGKLINHHLLTEVLGERQARFDKQGDRFYDLISALHKSIRGSAPDAALYWYARIITAGGDPLYVARRLLAIASEDVGNADPRAMQVALAAWDCFTRVGAAEGERAIAQAIVYLAVAPKSNAVYVAFKQAKKLAKEMPDYDVPVHLRNAPTHLMKELGYGAEYRYAHDEPNAYAAGEIYFPEELKNTKFYFPTDRGLEIQLKEKLARLHNLDEQSTKKRYK,not soluble
4,MGSDKIHHHHHHMSSGLYLYGIFPDPIPETVTLQGLDSQLVYSQIIDGFTFLYSEAKQEKYLASRRNLISHEKVLEQAMHAGFRTLLPLRFGLVVKNWETVVTQLLQPYKAQLRELFQKLAGRREVSVKIFWDSKAELQAMMDSHQDLKQKRDQMEGKALSMEEVIHIGQLIESNLLSRKESIIQVFFDELKPLADEVIESDPMTEDMIYNAAFLIPWENESIFSQQVESIDHKFDERLRIRYNNFTAPYTFAQIS,not soluble
5,MGSDKIHHHHHHMSSSHSKNGNENETAKGITRISVSGYKSLYDECSIEIRPLTILAGANSSGKSSIIQPLLLMKQTLEATYDPGALLLNGANVKFTSAEQLISHLPGKERIQRFVIGIEIEHNQSVKNIFTKFPRQPIDLQEMIVEKNDSKVSLSTDTLPADVVNILPKQYLDFYKSIQDTDLKGKFFFIISRNRCFLEFELYDFINQKKLSSQSFLFNYITPDHTELFGRQIRKIIHIPGLRGNPERNYKTTAVGDAFPGTFDNYVASIIHRWQRPRDKRLQELNNALVSLGLTSKVQAKQLDDTQVELRVARLTRNSDNEKDMVSIADVGFGVSQTLPVLVALLVAEPGQLVYIEQPEIHLHPRAQVAMAEILANAAKRGVKIVVETHSDRLILATQSLVAEGNLSPDLVKLHWFTRQEDGITKINSADLDETGAFGDWPEDFGDVSLQLENRYLSAAEARLIQGTHGG,not soluble
6,MGSDKIHHHHHHMSTFLESLRDILSAGESIAMATIANHSGSTPRGDGAQMVIRPDGSILGTIGGGLVEARCIEAGRDLLQRPPGSALFCAFALDNTTAAEAAMVCGGHLTVIIEHAGACHDNVNGCHTGEQTGCSAGHGKGLADILLHACDRVADGLSASFGVEYVWDSPSGQDGANALDKADISGRATTRQTFRPMRAAVHTTGEDSDGQRLSGASTGLALSESGCRLDVMLVPPPRLVIFGAGHVAVPTAHFGHAVGFSVTVIDDRPDFATPERFPDAHLRIPPSFAEAFDGLHVTPDTYLVIMTRGHLHDGEILEQALKTPARYIGMIGSRRKRDALYAELQEQGLDDATLARCHCPIGLDIQAQTPEEIGISIMAELVMHRASA,not soluble
7,MGSDKIHHHHHHMSTIQIKQLNFAYDGQAPLFTNTTLDLDTNWHLGLVGRNGRGKTTLLRILQQALPYSGTVTVPLQLQYFPQTLDETQLTLTAAQAITDVAQWQLERELNLLHADPNILWRPFVDLSGGEQTKVRLALLFIQDNGVALIDEPTNHLDLRSRRQVAAYLQQKPGFIVVSHDRDFLDSITDHTLAIQRQQITLYQGNFSTFMTEKERQDQTELAKNGQLKTEITRLKRTTHDKKVWAENKEKSIYGNPHIKDSGHNAGRGFISARAARTMKKSKNLEHRMTKEIDEKESLLKNLEKVDPLTMLPVSTHHHQLVVAEKVQVGFDQPLFQPISFTLTRGDRIAIVGDNGSGKSTLIRALLKQFTGMQSGHLTLAPVSLSLVRQQYTDNRGTLVDFAKQHQLSRETLLNNLRKLGMPRADFNTSIEHLSMGQQKKVELARSLATPGALYVWDEPLNYLDTYNQDQLVAAIKHYQPTMLFVEHDEHFIEQVATKIIRLQP,not soluble
8,MGSDKIHHHHHHMSTPIGLGLPPTPPPVLAPRRKTRQLMVGKVGVGSDHPISVQSMTTTKTHDINGTLQQIAQLTATGCDIVRVACPKTVDAEALPIIAKKSPIPVIADIHFQPKYIFAAIDAGCAAVRVNPGNIKEFDGRVKEVAKAAGDAGIPIRIGVNGGSLDKRILDKYHGKATPEALVESAMWEAGLFEEHGFGDIAISVKHSDPVLMVEAYRQLAEQSDYPLHLGVTEAGPKFMGTIKSSVAFGALLSQGIGDTIRVSLSADPVEEIKVGDQILQSLNLRPRKLEIVSCPSCGRAQVDVYSLAEEVTEALDGMEVPLRVAVMGCVVNGPGEARDADLGVASGNGKGQIFVKGEVIKTVPESQIVETLIEEAMRIAEEMDPEVLAAASASGMKAEVKVTK,not soluble
9,MGSDKIHHHHHHMTAPMPNLGAVFDTVDPAMAHLAARIDRLILAIDAALTRQLNAILAASEFRALEARWRALDRVLTHAGRDGQVIVRILNVSWRALSRDLDRAVEFDQSHLHKLVYDGEFGMPGGLPFGVLVADYEVSATTDRARGDQVETLSRLAAVAAAAFCPIMLGAAPDLLGVDDFDQIAPYTDLTDAEGRRADPPMIRWRALRDRDDARFIGLVAPRIVLRGPRTRLSPTRADGFTFDEDPHRILSVAGSFAFATTVIAAFRASGWFAAIRGAAQDTDGGGRVAGWPGHDLGTDGHNLSRQSPATLRLTAAQEDALIARGIVPLSSLPLTDEAVFNANPSLHRPTRYDSPVASENARISAMLQYVLCTSRFAHYLKVMMREAIGSVAPPDVIQGHLDDWLRGYCLGNEDAGAELKAEYPLRNAGVEVTPIPGKPGAFAARIHLQPHFQLDDISTSFHLVSEAPAGLERTSA,not soluble
10,MGSDKIHHHHHHMTARWRSANGRPAPTRVEVVSDSLTADDANRMASQGIAMLWQGDFHNARQILNAMDRRIGAGKKETAATPAEKFYRHRQSASHRARILGLLLIPLDPGPVVPLRRAPDIRQAAAGAYGDIGEPSVVSLHELVGAIGAHEWRRNGVYVDALEGRIHPHYGTFFPTRSEYVDLVAAAALPSDTLAFDVGTGTGVLAAVLARRGVRSVVATDNEPRAIACAAENFRNLGVQDRAEAVLTDMFPPGRAPLIVCNPPWIPATPHSSLDSAVYDPGSRMLFRFLNELSDHLEPGGEGWLVLSDLAEHLGLRSRGDLLAAIEAAGLKVVERLDTKPTHPKASDRDDPLFEARTAEVTSLWRLVPR,not soluble
